Assay results taken from US20210324080A1 (JIANGSU HUAIYU PHARMACEUTICAL, published 2021).
Positions count from the first letter of the chain named.

Assays:
[1] = biological target: T1, CTLA-4-hFc (immunogen A; hFc-labeled CTLA-4 extracellular domain protein) (human, UniProt P16410 36-161); experiment: blocking assay, CTLA-4 protein, competitor B7.2
T1 construct: range 36-161; Made in HEK293 cells, purified on protein A; also called CLTA-4-hFc; CTLA-4 protein; not shown: human IgG Fc fragment (hFc) of the pCpC vector
T1 sequence (looked up): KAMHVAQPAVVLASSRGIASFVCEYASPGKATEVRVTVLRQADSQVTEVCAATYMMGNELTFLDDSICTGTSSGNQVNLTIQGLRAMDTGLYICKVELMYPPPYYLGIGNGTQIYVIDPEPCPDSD
Method: (§1) CTLA-4 extracellular domain protein (CTLA-4-hFc) was diluted with PBS to a final concentration of 1.0 μg/mL, and then added to a 96-well ELISA plate as 100 μl per well. The plate was covered with a plastic film and incubated overnight at 4° C. The plate was washed twice with plate washing solution [PBS containing 0.01% (v/v) Tween 20] on the next day, and added with blocking solution [PBS containing 0.01% (v/v) Tween 20 and 1% (w/w) BSA] and blocked at room temperature for 2 hours. […] After 2 hours, the plate was washed 3 times with a plate washing solution [PBS containing 0.01% (v/v) Tween 20]. HRP (horseradish peroxidase) labeled avidin diluent (purchased from Sigma) was added 100 microliters per well, and after the plate was incubated for 2 hours at 37° C., it was washed with plate washing solution [PBS containing 0.01% (v/v) Tween 20] for 3 times. […] TMB substrate was added to each well. After incubated at room temperature for 30 minutes, the plate was added with […] stop solution (1.0N HCl) to each well. An ELISA plate reader (SpectraMax 384plus, Molecular Device) was used to read the A450 nm value.

[2] = biological target: T1, CTLA-4-hFc (immunogen A; hFc-labeled …); experiment: blocking assay, CTLA-4 protein, competitor B7.1
Method: as §1

[3] = biological target: T2, monkey CTLA-4, full length, on transfected HEK293 cells (monkey); experiment: FACS, monkey CTLA-4 expressing cells
T2 construct: whole, on cells; also called cCTLA-4; HEK293-cCTLA-4
From the text: The pIRES plasmid with the monkey-derived CTLA-4 full-length gene was transfected into the HEK293 cell line to construct a HEK293 stable cell line containing monkey CTLA-4 (herein referred to as HEK293-cCTLA-4 stable cell line), wherein the database accession number of the monkey CTLA-4 nucleotide sequence is XM_005574014.1. The HEK293-hCTLA-4 stable cell line and HEK293-cCTLA-4 stable cell line were expanded in a T-75 cell culture flask to a 90% confluence. The medium was aspirated, and the cells were washed with HBSS buffer (Hanks Balanced Salt Solution, purchased from Invitrogen) twice, then treated with an enzyme-free cell dissociation fluid (Versene solution, purchased from Life technology) and the cells were collected. The cells were washed with HBSS buffer twice. After counted, the cells were diluted with HBSS buffer to 2×10⁶ cells per ml, added with 1% goat serum blocking solution, wherein the percentage was the mass percantage. Cells were incubated on ice for 30 minutes, then washed twice with HBSS buffer by centrifugation. The collected cells were suspended in the FACS buffer (HBSS containing 1% BSA, wherein the percentage was the mass percantage) to 2×10⁶ cells/ml, added as 100 microliters per well to a 96-well FACS reaction plate, added with 100 microliters per well of the purified CTLA-4 antibody sample to be tested, incubated on ice for 2 hours. The plate was washed twice with the FACS buffer by centrifugation, added with 100 microliters of fluorescent (Alexa 488)-labeled secondary antibodies (purchased from Invitrogen) per well, and incubated on ice for 1 hour. The plate was washed 3 times with FACS buffer by centrifugation, added with 100 μl fixative solution [4% (v/v) Paraformaldehyde] per well to suspend the cells. 10 minutes later, it was washed 2 times with FACS buffer by centrifugation. The cells were suspended with 100 microliters of FACS buffer, FACS (FACS Calibur, purchased from BD) was used for detection and the results were analyzed.

[4] = biological target: T3, CTLA-4 on human T lymphocytes (PBMC, CD3+ T cells) (human, UniProt P16410 36-223); experiment: cell-based or functional assay
T3 sequence (looked up): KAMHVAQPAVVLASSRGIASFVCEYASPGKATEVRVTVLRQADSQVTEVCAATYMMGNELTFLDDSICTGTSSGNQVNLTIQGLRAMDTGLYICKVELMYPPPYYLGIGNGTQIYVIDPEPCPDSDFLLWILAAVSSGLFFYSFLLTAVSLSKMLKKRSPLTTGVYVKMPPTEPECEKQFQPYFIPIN

[5] = biological target: T4, human CTLA-4 (Y201V), full length, on transfected cells (human, UniProt P16410 36-223); experiment: FACS, human CTLA-4 expressing cells
T4 construct: whole, on cells; also called hCTLA-4; HEK293-hCTLA-4 (Y201V)
T4 sequence (looked up): T3 sequence (looked up) with Y166V

B1: 92C8B6 fully human CTLA-4 antibody (human IgG1, kappa) (antibody, V domains shown)
VH: QVQLVESGGGVVQPGRSLRLSCAASGFTFSNFGMHWVRQAPGKGLEWVAVIWYDGSNKYYADSVKGRFTISRDNSKNTLFLQMNGLRAEDTAVYYCAKGGILMAGTLDYWGQGTLVTVSS
VL: DIQMTQSPSSLSASVGDRVTITCRASQSVSTYLNWYQQKPGKAPKLLIYAASSFQSGVPSRFSGSGSGTDFTLTISSLQPEDFATYFCQQSYSTPFTFGPGTKVDIK
notes: also called mAb42; mAb042
% Block at 0.000128 nM [1]: 0% | % Block at 0.0128 nM [1]: 25% | % Block at 0.064 nM [1]: 36.7% | % Block at 0.32 nM [1]: 78.5% | % Block at 1.6 nM [1]: 98.7% | % Block at 8 nM [1]: 99.2% | % Block at 40 nM [1]: 99.2% | % Block at 200 nM [1]: 99.2% | % Block at 0.000128 nM [2]: 0% | % Block at 0.0128 nM [2]: 5.3% | % Block at 0.064 nM [2]: 21.4% | % Block at 0.32 nM [2]: 65.1% | % Block at 1.6 nM [2]: 93.7% | % Block at 8 nM [2]: 98.1% | % Block at 40 nM [2]: 98.9% | % Block at 200 nM [2]: 99.3% | MFI at 0.000128 nM [3]: 2 | MFI at 0.0128 nM [3]: 22 | MFI at 0.064 nM [3]: 68 | MFI at 0.32 nM [3]: 208 | MFI at 1.6 nM [3]: 465 | MFI at 8 nM [3]: 722 | MFI at 40 nM [3]: 800 | MFI at 200 nM [3]: 711 | IL-2 secretion, pg/ml, at 0.13 ug/ml, N = 1 [4]: 1570 pg/mL | IL-2 secretion, pg/ml, at 0.13 ug/ml, N = 2 [4]: 1390 pg/mL | IL-2 secretion, pg/ml, at 0.37 ug/ml, N = 1 [4]: 2810 pg/mL | IL-2 secretion, pg/ml, at 0.37 ug/ml, N = 2 [4]: 1860 pg/mL | IL-2 secretion, pg/ml, at 1.1 ug/ml, N = 1 [4]: 3610 pg/mL | IL-2 secretion, pg/ml, at 1.1 ug/ml, N = 2 [4]: 2930 pg/mL | IL-2 secretion, pg/ml, at 3.3 ug/ml, N = 1 [4]: 4860 pg/mL | IL-2 secretion, pg/ml, at 3.3 ug/ml, N = 2 [4]: 3490 pg/mL | IL-2 secretion, pg/ml, at 10 ug/ml, N = 1 [4]: 6670 pg/mL | IL-2 secretion, pg/ml, at 10 ug/ml, N = 2 [4]: 5200 pg/mL | IL-2 secretion, pg/ml, at 30 ug/ml, N = 1 [4]: 7240 pg/mL | IL-2 secretion, pg/ml, at 30 ug/ml, N = 2 [4]: 6590 pg/mL | MFI at 0.000128 nM [5]: 3 | MFI at 0.0128 nM [5]: 23 | MFI at 0.064 nM [5]: 67 | MFI at 0.32 nM [5]: 203 | MFI at 1.6 nM [5]: 509 | MFI at 8 nM [5]: 827 | MFI at 40 nM [5]: 1040 | MFI at 200 nM [5]: 1060

B2: 40C4C6 fully human CTLA-4 antibody (human IgG1, kappa) (antibody, V domains shown)
VH: QVQLVESGGGVVQPGRSLRLSCAASGFTFSSYGMHWVRQAPGKGLEWVAVIWYDGRNKYYADSVKGRFTISRDNSKNTLYLQMNSLRAEDTAVYYCARASGSYSYYFDYWGQGTLVTVSS
VL: DIQMTQSPSSLSASVGGRVTITCRASQSISSFLNWYQHELGKAPKLLIYGASSLQSGVPSRFSGSGSGTDFTLTISSLQPEDFATYYCQQTYSTPFTFGPGTKVDIK
notes: also called mAb09; mAb009
% Block at 0.000128 nM [1]: 0% | % Block at 0.0128 nM [1]: 30% | % Block at 0.064 nM [1]: 52.4% | % Block at 0.32 nM [1]: 89.2% | % Block at 1.6 nM [1]: 99.1% | % Block at 8 nM [1]: 99.1% | % Block at 40 nM [1]: 99.1% | % Block at 200 nM [1]: 99.1% | % Block at 0.000128 nM [2]: 0% | % Block at 0.0128 nM [2]: 9.3% | % Block at 0.064 nM [2]: 35% | % Block at 0.32 nM [2]: 82.1% | % Block at 1.6 nM [2]: 98.1% | % Block at 8 nM [2]: 99.2% | % Block at 40 nM [2]: 99.4% | % Block at 200 nM [2]: 99.4% | MFI at 0.000128 nM [3]: 2 | MFI at 0.0128 nM [3]: 23 | MFI at 0.064 nM [3]: 69 | MFI at 0.32 nM [3]: 219 | MFI at 1.6 nM [3]: 421 | MFI at 8 nM [3]: 619 | MFI at 40 nM [3]: 626 | MFI at 200 nM [3]: 643 | IL-2 secretion, pg/ml, at 0.13 ug/ml, N = 1 [4]: 2140 pg/mL | IL-2 secretion, pg/ml, at 0.13 ug/ml, N = 2 [4]: 1830 pg/mL | IL-2 secretion, pg/ml, at 0.37 ug/ml, N = 1 [4]: 2370 pg/mL | IL-2 secretion, pg/ml, at 0.37 ug/ml, N = 2 [4]: 2160 pg/mL | IL-2 secretion, pg/ml, at 1.1 ug/ml, N = 1 [4]: 3200 pg/mL | IL-2 secretion, pg/ml, at 1.1 ug/ml, N = 2 [4]: 3010 pg/mL | IL-2 secretion, pg/ml, at 3.3 ug/ml, N = 1 [4]: 3770 pg/mL | IL-2 secretion, pg/ml, at 3.3 ug/ml, N = 2 [4]: 3620 pg/mL | IL-2 secretion, pg/ml, at 10 ug/ml, N = 1 [4]: 5270 pg/mL | IL-2 secretion, pg/ml, at 10 ug/ml, N = 2 [4]: 4810 pg/mL | IL-2 secretion, pg/ml, at 30 ug/ml, N = 1 [4]: 6840 pg/mL | IL-2 secretion, pg/ml, at 30 ug/ml, N = 2 [4]: 7410 pg/mL | MFI at 0.000128 nM [5]: 3 | MFI at 0.0128 nM [5]: 24 | MFI at 0.064 nM [5]: 74 | MFI at 0.32 nM [5]: 233 | MFI at 1.6 nM [5]: 553 | MFI at 8 nM [5]: 795 | MFI at 40 nM [5]: 967 | MFI at 200 nM [5]: 963
